In patent US20100303858A1:

Tests used:
[1] = target: gp120/sCD4 complex (HIV-1 YU2) (UniProt P35961); test: SPR (BIACORE 2000), antibody immobilized on CM4 chip, gp120/sCD4 as analyte, 1:1 Langmuir fit
[2] = target: gp120/sCD4 complex (HIV-1 YU2) (UniProt P35961); test: SPR, antibody immobilized; KD of gp120/sCD4 against KD of gp120ΔV1/V2sdCD4 and gp120ΔV2sdCD4
[3] = target: gp120ΔV1/V2sdCD4 chimeric protein (HIV-1 YU2) (UniProt P35961); test: SPR (BIACORE 2000), antibody immobilized on CM4 chip, chimeric protein as analyte, 1:1 Langmuir fit
[4] = target: gp120ΔV2sdCD4 chimeric protein (HIV-1 YU2) (UniProt P35961); test: as above
[5] = target: wild type gp120YU2 (HIV-1 YU2) (UniProt P35961); test: ELISA, gp120 captured by D7324, bound antibody as OD 490 nm
[6] = target: gp120/sCD4 complex (HIV-1 YU2) (UniProt P35961); test: ELISA, gp120/sCD4 captured by D7324, bound antibody as OD 490 nm

Row | Substance | Kd [1] [pM] | koff [1] [s⁻¹] | kon [1] [M⁻¹ s⁻¹] | fold KD against the chimeric proteins [2] [fold] | Kd [3] [pM] | koff [3] [s⁻¹] | kon [3] [M⁻¹ s⁻¹] | Kd [4] [pM] | koff [4] [s⁻¹] | kon [4] [M⁻¹ s⁻¹] | EC50 (read off the curve) [5] [µg/mL] | EC50 (read off the curve) [6] [µg/mL]
1 | human CD4i monoclonal antibody 4.8D | 1200 | 0.000212 | 177000 | 100 | 15 | 0.000149 | 9.45e+06 | 38 | 0.000197 | 5.2e+06 | – | –
2 | human CD4i monoclonal antibody E51 | 210 | 0.000169 | 796000 | – | 12 | 0.000516 | 4.27e+07 | 13 | 0.000398 | 3.08e+07 | – | –
3 | human MAb F105 (antibody) | – | – | – | – | – | – | – | – | – | – | 0.1 | 0.3
